Measurements: the DeepSol protein solubility set

Assay: soluble on expression in E. coli; label from the status in PepcDB or PDB records

Row | Sequence | soluble on expression in E. coli
1 | MAHHHHHHMATIGMFNEEGENVDLYIPRKCHATTTLIEAHDHAAVQISIANVGPNGVINGTTTTLCIAGYLRSQGESDHAINHITIDRGIMRIKTGKPKRASKSKSKKPAAKGAAAGAAAQKGARPPAQKGARPPAQKGARPPAQKGARPPAQKGARPPAQKGAAPARKNRA | soluble
2 | DGTVVNYVGFQRDITERKEHERRLKALSESVQDLLQADTREEVAEIGVETARTVLGLEANTIHLYNEAERTLEPVAASDGIYDLLEDLPTFTPGDSIAWRVYESGDALAVDDVHADPDIYNPDTPIKSELYLPLGRHGILLAGSGTNAAFDQR | not soluble
3 | MSLKINVADFHGTYLENPRTVNNFSLTGTDQKVFDNSSLQGRWTLVFFGFTNCGYLCPTTMAELGKMYRILEKKGVKNLPQVVMISIDPQRDSLDKLGSYVTSFHKSFYGARGEEDSIKSMTHEMGIAYAKINSKESSEPENYDIQHSGAVMLFNPQGELNAFFTTPHHADLLAKDYVLLVSEGHHHHHH | soluble
4 | MLYALLLLFGGVSTVSSLRVAVVGEGVIGLSTATAILDLAEKRNIPAPEIHIFHHKPFEKILSRHIAGLFRIDSGSEIDRKYGYDTFEKLATLWREYGGLSGVQLVSGHILSDSKTKLDSQRESYGSLVYNYRDLAEPELFGPTSLFDLPRNTTTRGIHYTAYTSEGLRFCPFLKKELMTKGVRFTQRRIGNLEELGAEFDVVVNSAGLLGGVLAGDDAGNMKPIRGVLIRVDAPWQKHFLYRDFSTITIPVIDHVYMGTVKQEGAFGPNNVTSADIQDITSRYVALQPSFKRVHMLSSFVGYRPGRKQVRVEKQIRETNGSKKFTVVHNYGHSGNGFTLGYGSAVHAAHIVLDLPLDAYHGLVPEPLPINATISEWVKYLDD | not soluble
5 | MFVDQVKISLKAGDGGNGITAYRREKYVPFGGPAGGDGGKGASVVFEVDEGLRTLLDFRYQRHFKASKGENGQSSNMHGKNAEDLVLKVPPGTIIKNVETDEVLADLVEDGQRAVVAKGGRGGRGNSRFATPRNPAPDFSEKGEPGEELDVSLELKLLADVGLVGFPSVGKSTLLSIVSKAKPKIGAYHFTTIKPNLGVVSTPDQRSFVMADLPGLIEGASDGVGLGHQFLRHVERTKVIVHMIDMSGSEGREPIEDYKVINQELAAYEQRLEDRPQIVVANKMDLPESQDNLNLFKEEIGEDVPVIPVSTITRDNIDQLLYAIADKLEEYKDVDITVEEEESVGINRVLYKHTPSQDKFTISRDDDGAYVVSGNAIERMFKMTDFNSDPAVRRFARQMRSMGIDDALRERGCKNGDIVRILGGEFEFVE | not soluble
6 | GMKQSKKIIITCAVTGSIHTPTMSPYLPITPEEIVKEGVAAAEAGAAMLHLHARDPLNGRPSQDPDLFMRFLPQLKERTDAILNITTGGGLGMSLDERLAPARAARPEVASMNMGSLNFNISQAAAKFDTFKFDWERPYLAGTRDFILSNTFSQIERGMTELGASGTRFEFECYDVGHLYNLAHFVDRKLVEPPFFLQCVFGILGGIGADPENLLHMRTIADRLFGQDYYLSVLAAGRHQMPFVTMSAILGGNVRVGLEDSLYSGKGQLATSNAEQVRKIRRIIEELSLDIATPDEARAMLKTKGANETSF | soluble
7 | MKMSELEKMLKGEHFDGASAEIEALRSQAGRLKLEINQSLDEAERYALQRELFGHLGHKSCVQPPFHCEFGKTIRIGDHTFINMNVVMLDGAPITIGDHVLIGPSTQFYTASHSLDYRRRQAWETICKPIVIEDDVWIGGNVVINQGVTIGARSVVAANSVVNQDVPPDTLVGGTPARILRSLKDPAESMAE | not soluble
8 | MEFRQLRSFVEVVRQGSFTQAAQVRHASQSTISKQVAQLEQSLGVQVLERNGPHVRLTDAGAVVFRRAEEMLRLRRDLLSELDDLSQLNRGELRLGLPLLGADALFAQRFAEYRRRYPNIAVHLVEGGSKTMEQAVLAGELELAGSLTPADDGFDYQPFCNEPLDVLLPAGHPKAAAASVALGELADSPFLLYQQSFTLNDRLLRACLEAGFSPREGGRSGQADFLGALVAANQGVVLLPRVIAREIERPGVVRVLLREPDLRWDIAFIWRRGGYLSRAAQAWLELLREQPLEESPA | not soluble
9 | MGHHHHHHSHMASLFRSYLPAIWLLLSQLLRESLAAELRGCGPRFGKHLLSYCPMPEKTFTTTPGGWLLESGRPKEMVSTSNNKDGQALGTTSEFIPNLSPELKKPLSEGQPSLKKIILSRKKRSGRHRFDPFCCEVICDDGTSVKLCT | not soluble
10 | MNYQDVLDFWFAPDHTNFWFAKDSLFDDEIRTQFSTVHQQATQAELWSWRQTVEGRLAEIIVLDQFSRNLYRDQAQAFAQDSMALALAQEAITQQLDAQLSPEQRSFLYMPFMHSESKLIHEFALKLFQKLGNEINLSFEKKHKVIIDQFGRYPHRNAILGRQSTPEELEFLTQPNSHF | not soluble
11 | MGSDKIHHHHHHMNDNAERRYRRPSYRITLDEQDITPRINGRLIRLRLRSQRGLEADQLDLTLSDHDGALALPRRGVSLRVAYGWQDDGLIDKGLFTVDEVQHSGTPDQITIRARSADMRGRLPGKRSRSWHDITVGEIIDTIAKRHTLEPVVGDTVRGIRIGHIDQTEESDLNFLTRLGERFDAVATVKAARLLFTQAGEALTASGLAMPSVTLTRRDGDRHRYSATDRDTYTGVIAYWNDKANAKRQRVIAGSDEDAKELRPTYATEADALDAAKAEWRRVQRGEATFKITLAYGRADILPESPLTASGFKPDIDATPWLVTEVEDSLDDNGFGTRVQCEVRGGAAET | not soluble
12 | SLPGMEHNHNHDHSSHGNHAMHDVGPADATYDLRFIDAMIQHHYGAIEMAKVTINQGYPGAGALASQIISAQSWEIANMLRQRQLRFPDAPIMPVRYTPGQSTVLSQLQPMTEADKVAMRMSGTMDMTGDRGKAFAAAMIPHHEMAIAMAEDALAKSGDSFVRSISWEIIRTQSDEIRRLRGLL | not soluble
13 | MSLNTEIEMNELLEKAKKIKCLICDVDGVLSDGLLHIDNHGNELKSFHVQDGMGLKLLMAAGIQVAIITTAQNAVVDHRMEQLGITHYYKGQVDKRSAYQHLKKTLGLNDDEFAYIGDDLPDLPLIQQVGLGVAVSNAVPQVLEFADWRTERTGGRGAVRELCDLILNAQNKAELAITGYLKQEGHHHHHH | soluble
14 | MGSDKIHHHHHHMANLLTINHLSYSRNLQLILKDLNLELPYGQIVGLLGTNGAGKTTLMRLIAGNYIDRKNSISINTETNSAVRKSLVSFTEQVGGWSGHPRIFKIGNFYDALYEDFNLTTFNQLLSNLNLSPDQRVNQLSKGNFRKLVIAVTLARQTDLYLLDEPFDGIDSMTRKKIISSIIQWKPENATVLVSDHHVGDIANLLDQVVIIKDQHVAAQEAADTIRETLGKDIETYYEDFYREEL | not soluble
15 | MGHHHHHHHHHHSSGHIDDDDKHMGSMAELKYISGFGNECSSEDPRCPGSLPEGQNNPQVCPYNLYAEQLSGSAFTCPRSTNKRSWLYRILPSVSHKPFESIDEGHVTHNWDEVDPDPNQLRWKPFEIPKASQKKVDFVSGLHTLCGAGDIKSNNGLAIHIFLCNTSMENRCFYNSDGDFLIVPQKGNLLIYTEFGKMLVQPNEICVIQRGMRFSIDVFEETRGYILEVYGVHFELPDLGPIGANGLANPRDFLIPIAWYEDRQVPGGYTVINKYQGKLFAAKQDVSPFNVVAWHGNYTPYKYNLKNFMVINSVAFDHADPSIFTVLTAKSVRPGVAIADFVIFPPRWGVADKTFRPPYYHRNCMSEFMGLIRGHYEAKQGGFLPGGGSLHSTMTPHGPDADCFEKASKVKLAPERIADGTMAFMFESSLSLAVTKWGLKASRCLDENYHKCWEPLKSHFTPNSRNPAEPN | soluble
16 | MAHHHHHHMFNHDIIKEKDNYKQKIRTLYRNEKEAIKPCNHYDMKEEEKKKSGKIKRSIKLFGTPAVHGLSSHINNNSGTQLYYNFHNVLKRDKEKIQDDNLNYTLERDAGEDNTMQSIHESDKTETQECGKHYLYNKFDIYKSYLSYKKDLIRNEYDQDYKGITTSLLKGKDTHDDNKDNKDNDDNDDNDDNNDHNDHYDITRDDPCDDMCDDMCEDMCDDMCDDMCDDPCDDMCDDPCDDMCDDPCDDMCDDPCDDPYDHPYEEEKYSTYCDKGYLRNFLKNAIIRPNLQTFVGRKIISFLNEKERDIFSLTCKILFFEVYSVSNLKTLYKYQFISNEKRSFIWKAILLEDNTYISEEDYKELRNRKCLYDKAIEKDINRTFPKHPFFINKNMNMQDKLLDILKVCSLYFERIGYCQGMNYIAGILLLVFRKNIDTIRCFISMLKNYNIKGMFSYNFPQLKKIIYQLNLLIKAYIPKLFYYFKRKKIKIDFFCVNWFLTLFSQDLSFENTLKLWDLFFLFGMKILIKLTLILLYYHEDNIIHLSYDEALTYLKAITKTPFIDYLFQDDHFFTHLKKFKITNSMLTQIIMLKKSRQKINLLVKENNGKLRCSIQIKQNNKHTFTSKIKEGFRNLFKLNENYVDYINYFYQKGDGEENNGNQNNGEEYNGKEYNGNQNNGNQNNGKQNNGNQNNGKQNNGNQNNVKQNNGEDTNKNNNNDDINNNICHNNYSSTNFYKNFFQHFNCGNIFNNPNYSNEIVLTNTTCLSVHFNSNVLCNSQNIKNKNTIHSLENIKEEHDHTKNPSNFFLETNTYYDLNLTKSVDGNN | soluble
17 | MTEETKPIKIAVIRCDIVSEACPGVGCFKAFNERKSYFKEYDEKAQMIAFFTCGGCSGRRVYRLLKALKKHNPDVVHLSSCMLMEDSYPRCPNIDTIRKTIQDAGIKVVEGTHH | not soluble
18 | MGSDKIHHHHHHMYQPGIVFLFSGHKIGYINERTFRYDTNEYLLLTVPLPFECETFATPEVPLAGMRLNVDILQLQELLMDIGEDPLFQPAVASSGINSAVLSEDILCAAERLLDVMERPLDARILGKQIVREILYYVLTGPCGGALLALVSRQTHFSLISRVLKHIESQYTENLSVDRLAAEANMSVSAFHHNFKAVTSTSPLQYLKNYRLHKARMLMIHDGMKASAAAMRVGYESPSQFSREFKRYFGLTPGEDAARIRTMQGM | not soluble
19 | MGKYKFIEERVETMSSSELKIFLNILKSRSKELMSTLESVRGIKDLEAVCKSTQKLNNRVSEFDGGSFLILVVGPVKSGKSTLVNLIAHAHVSPTHFLECTVRPSIISKGQEESITRIFSVADKARKVEQFDSVIDSLRGFEKLENISEISIEKKELNDANLEECVSLALEESVINTDHTLVTSITTSGGELLKDNIFLVDMPGLDGGYVNLDNPIYETISQRADFVIFVQSSNSAISKVSNRFLKLLQENNPKVPVCLLHNVFEAAYWHSEEEKQAVIKAQVEFAENEMGRRNFQLKENIYSLNLGKVADAASYEGMEDLQEEAAKFQRFEKDLYGKVISNSTDIRLRSVIGRTLNQLEKLDNLVGESIGQQEAIDIEYQAAATSFDELLRQASELSYDGSDFRKMVQVYMDDDLKEFTEIVREYYDSGCNSAFAGGAKGKDATRSLVTKFMTDSSAAIKSKFLDSHEHSLARQYLRKLSNLKDDVAFIEKMNTFLKQKGCAPFDSVPQVTDFPVVDFDLQGAFDVKNINNPTVPHIGIPNPFGTYSTMEIQSFLRKAMECITGIDHTHTGKTIKGYLQLTVGKSIYKAANDLYDQYVPVRKQSIIDFLEQQKTMYLNALVSDKEEFDRKDALLRSINAQVQSFKDSIR | not soluble
20 | MSLASISPQGSMSLLSQLEIERLKASSNSQLYKLFRNCCLAVLNAGSHTDSSADIYDSYKDFEVNIIRRERGIKLELIEPPEEAFVDGEVIVGIRELLESVLRDILFTGERYSETDLEHADSATLTHVVFDILRNARTLRPQEEPNMVVCWGGHSINEIEYKYTKDVGYHIGLRGLNICTGCGPGAMKGPMKGATIGHAKQRVEGGRYLGLTEPGIIAAEPPNPIVNELVILPDIEKRLEAFVRCAHGIVIFPGGAGTAEELLYLLGILMHPDNQRQSLPVILTGPASSRDYFEALDEFIGATIGDEARQLYKIIIDDPAAVAQHMHAGMAAVKQYRRDSGDAYYFNWTLKINEEFQRPFSPTHENVAALNLHPDQPKERLAADLRRAFSAIVAGNVKDEGIRQIRKNGVFTIHGEQSLMKRLDELLRAFVEQGRMKLPGSVYNPCYKVITDEGHHHHHH | soluble
